Literature values, collected in article PMC8834348.

Experiments:
[1] = molecular target: flotillin 1 (Homo sapiens) (UniProt O75955)
[2] = molecular target: flotillin 2 (Homo sapiens) (UniProt Q14254)
Sequence of UniProt Q14254 (Q14254 2-428): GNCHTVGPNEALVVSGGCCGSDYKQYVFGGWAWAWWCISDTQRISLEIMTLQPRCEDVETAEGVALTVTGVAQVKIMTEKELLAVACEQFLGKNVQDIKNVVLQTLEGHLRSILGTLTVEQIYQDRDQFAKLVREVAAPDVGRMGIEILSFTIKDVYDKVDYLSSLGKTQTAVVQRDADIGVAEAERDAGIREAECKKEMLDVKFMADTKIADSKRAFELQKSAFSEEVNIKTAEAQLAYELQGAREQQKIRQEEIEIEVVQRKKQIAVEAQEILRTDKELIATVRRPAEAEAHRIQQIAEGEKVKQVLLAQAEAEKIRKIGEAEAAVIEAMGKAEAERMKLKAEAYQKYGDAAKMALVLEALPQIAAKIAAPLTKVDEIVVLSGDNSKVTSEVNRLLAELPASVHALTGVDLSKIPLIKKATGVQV

Sequence of UniProt O75955 (O75955 whole entry): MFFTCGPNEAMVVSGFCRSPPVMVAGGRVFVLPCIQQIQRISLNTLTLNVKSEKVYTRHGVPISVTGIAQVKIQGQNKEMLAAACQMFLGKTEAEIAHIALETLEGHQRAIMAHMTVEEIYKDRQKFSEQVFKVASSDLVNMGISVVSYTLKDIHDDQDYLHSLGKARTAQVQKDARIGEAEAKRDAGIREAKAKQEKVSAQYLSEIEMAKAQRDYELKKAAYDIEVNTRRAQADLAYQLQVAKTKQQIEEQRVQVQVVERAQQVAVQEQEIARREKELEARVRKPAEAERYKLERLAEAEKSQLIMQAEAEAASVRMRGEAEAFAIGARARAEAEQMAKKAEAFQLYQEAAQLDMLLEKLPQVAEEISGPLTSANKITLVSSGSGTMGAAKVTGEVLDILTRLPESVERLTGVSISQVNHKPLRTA

Kd [1]: 30 nM
Kd [2]: 30 nM
Substance: MPP1 D5 domain (from UniProt Q00013)
